We go through 1 molecule from US20230416394A1 (ELPISCIENCE SUZHOU BIOPHARMA, published 2023).

For experiment [1], the target named is T1, KW27-6 (human, UniProt P49961 1-510).
T1 construct: on transfected HEK-293F cells; also called human CD39 mutant KW27-6; not shown: C-terminal EGFP (vector pCMV3-GFPSpark) and any linker to it
T1 sequence: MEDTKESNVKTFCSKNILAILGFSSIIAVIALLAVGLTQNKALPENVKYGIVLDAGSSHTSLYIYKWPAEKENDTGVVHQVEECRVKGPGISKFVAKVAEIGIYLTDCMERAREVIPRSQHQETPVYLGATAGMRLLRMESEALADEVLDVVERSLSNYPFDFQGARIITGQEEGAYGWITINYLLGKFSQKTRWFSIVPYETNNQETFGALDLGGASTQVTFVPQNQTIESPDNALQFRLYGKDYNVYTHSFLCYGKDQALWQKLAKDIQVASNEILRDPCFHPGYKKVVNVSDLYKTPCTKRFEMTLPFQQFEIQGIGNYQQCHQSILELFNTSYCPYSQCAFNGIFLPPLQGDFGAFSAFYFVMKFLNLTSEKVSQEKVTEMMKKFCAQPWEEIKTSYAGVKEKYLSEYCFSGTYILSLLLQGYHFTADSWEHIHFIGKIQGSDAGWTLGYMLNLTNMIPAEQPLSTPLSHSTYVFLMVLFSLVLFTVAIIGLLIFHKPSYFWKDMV
Briefly: FACS, HEK293F cells expressing mutant-EGFP. As for the experimental part:
Briefly, the human CD39 mutants were generated by gene synthesis and then cloned into an expression vector pCMV3-GFPSpark. The vectors containing the validated mutated sequences were prepared and transfected into HEK293F cells. Three days post transfection, the cells were collected to testing EGFP for transgene expression. A range of dosages of antibodies (start from 100 nM, 3-folds dilution, 11 points) were tested on the 20 generated mutants and stained by AlexFluor647 labelled anti-hIgG by FACS. Antibody binding was descripted as relative binding which is derived from AlexFluor647 intensity divided by GFP intensity.
A general note: A flow cytometer gives signals particle by particle.

For experiment [2], the target named is T2, mouse CD39 (mouse, UniProt P55772 1-510).
T2 construct: whole, on cells; also called mCD39; CHOK1-mCD39
T2 sequence (looked up): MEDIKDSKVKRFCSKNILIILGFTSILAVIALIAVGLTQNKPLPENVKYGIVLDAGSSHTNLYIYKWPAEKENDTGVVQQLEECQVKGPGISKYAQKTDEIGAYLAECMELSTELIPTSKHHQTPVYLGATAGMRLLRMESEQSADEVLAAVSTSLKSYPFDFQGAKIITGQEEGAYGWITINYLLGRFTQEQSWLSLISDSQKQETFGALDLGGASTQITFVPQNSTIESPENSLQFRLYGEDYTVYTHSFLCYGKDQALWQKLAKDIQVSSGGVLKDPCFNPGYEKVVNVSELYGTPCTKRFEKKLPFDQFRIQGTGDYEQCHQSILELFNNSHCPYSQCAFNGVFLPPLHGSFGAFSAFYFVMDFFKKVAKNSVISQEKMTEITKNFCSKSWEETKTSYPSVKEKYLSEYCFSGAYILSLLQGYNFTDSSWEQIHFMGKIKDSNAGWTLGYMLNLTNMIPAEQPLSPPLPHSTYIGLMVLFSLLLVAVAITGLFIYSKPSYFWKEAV
The experiment in a line: FACS, CHOK1-mCD39 cells. The text has this:
FACS were used to determine binding of the antibodies to cell lines expressing CD39 naturally (SK-MEL-28) or recombinantly (CHOK1-hCD39, CHOK1-cynoCD39, and CHOK1-mCD39), or with cells lacking CD39 expression (CHOK1-blank) as a negative control.
CHOK1-hCD39, CHOK1-cCD39, CHOK1-mCD39 and CHOK1-blank cells were maintained in culture medium according to ATCC procedure. Cells were collected and re-suspended in blocking buffer at a density of 3×10⁶ cells/ml. […] The plates were washed with FACS buffer, and cells were re-suspended in 100 μL/well of PBS. Cells were then analyzed with FACSVerse™ and mean fluorescence intensity were determined. Full binding curves were generated on the CD39 expressing cells by testing a range of antibody concentrations. Apparent affinity was determined for each antibody using Prism software.

B1: 9-8B (antibody, V domains shown)
VH: QIQLVQSGPELKKPGETVKISCKASGYTFTHYGMNWVKQAPGKGLKWMGWINTYTGELTYADDFKGRFAFSLETSASTAYLQINNLKNEDTATYFCARRAYYRYDYVMDYWGQGTSVTVSS
VL: DIVMTQSQKFMSTSVGDRVSVTCKASHNVGTNVAWYQQKPGQSPKALIYSASYRYSGVPGRFTGSGSGTDFTLTISNVQSEDLAEYFCHQYNNYPYTFGGGTKLEIK
notes: also called Antibody 9-8B
For the molecule B1, the binding result in experiment [1] is reported as “no binding (tested: 100 nM)”; in experiment [2], “no binding (tested: 30 µg/ml)”.
